B1: C-terminal biotinylated recombinant human apoA-IV (apoA-IV-GGC) (ligand)
chain: EVSADQVATVMWDYFSQLSNNAKEAVEHLQKSELTQQLNALFQDKLGEVNTYAGDLQKKLVPFATELHERLAKDSEKLKEEIGKELEELRARLLPHANEVSQKIGDNLRELQQRLEPYADQLRTQVSTQAEQLRRQLTPYAQRMERVLRENADSLQASLRPHADELKAKIDQNVEELKGRLTPYADEFKVKIDQTVEELRRSLAPYAQDTQEKLNHQLEGLTFQMKKNAEELKARISASAEELRQRLAPLAEDVRGNLRGNTEGLQKSLAELGGHLDQQVEEFRRRVEPYGENFNKALVQQMEQLRQKLGPHAGDVEGHLSFLEKDLRDKVNSFFSTFKEKESQDKTLSLPELEQQQEQQQEQQQEQVQMLAPLESGGC
modifications: maleimide-PEG2-biotin on the C-terminal cysteine of the GlyGlyCys linker
B2: human fibrinogen (ligand)
chain 1: GPRVVERHQSACKDSDWPFCSDEDWNYKCPSGCRMKGLIDEVNQDFTNRINKLKNSLFEYQKNNKDSHSLTTNIMEILRGDFSSANNRDNTYNRVSEDLRSRIEVLKRKVIEKVQHIQLLQKNVRAQLVDMKRLEVDIDIKIRSCRGSCSRALAREVDLKDYEDQQKQLEQVIAKDLLPSRDRQHLPLIKMKPVPDLVPGNFKSQLQKVPPEWKALTDMPQMRMELERPGGNEITRGGSTSYGTGSETESPRNPSSAGSWNSGSSGPGSTGNRNPGSSGTGGTATWKPGSSGPGSTGSWNSGSSGTGSTGNQNPGSPRPGSTGTWNPGSSERGSAGHWTSESSVSGSTGQWHSESGSFRPDSPGSGNARPNNPDWGTFEEVSGNVSPGTRREYHTEKLVTSKGDKELRTGKEKVTSGSTTTTRRSCSKTVTKTVIGPDGHKEVTKEVVTSEDGSDCPEAMDLGTLSGIGTLDGFRHRHPDEAAFFDTASTGKTFPGFFSPMLGEFVSETESRGSESGIFTNTKESSSHHPGIAEFPSRGKSSSYSKQFTSSTSYNRGDSTFESKSYKMADEAGSEADHEGTHSTKRGHAKSRPVRDCDDVLQTHPSGTQSGIFNIKLPGSSKIFSVYCDQETSLGGWLLIQQRMDGSLNFNRTWQDYKRGFGSLNDEGEGEFWLGNDYLHLLTQRGSVLRVELEDWAGNEAYAEYHFRVGSEAEGYALQVSSYEGTAGDALIEGSVEEGAEYTSHNNMQFSTFDRDADQWEENCAEVYGGGWWYNNCQAANLNGIYYPGGSYDPRNNSPYEIENGVVWVSFRGADYSLRAVRMKIRPLVTQ
chain 2: GHRPLDKKREEAPSLRPAPPPISGGGYRARPAKAAATQKKVERKAPDAGGCLHADPDLGVLCPTGCQLQEALLQQERPIRNSVDELNNNVEAVSQTSSSSFQYMYLLKDLWQKRQKQVKDNENVVNEYSSELEKHQLYIDETVNSNIPTNLRVLRSILENLRSKIQKLESDVSAQMEYCRTPCTVSCNIPVVSGKECEEIIRKGGETSEMYLIQPDSSVKPYRVYCDMNTENGGWTVIQNRQDGSVDFGRKWDPYKQGFGNVATNTDGKNYCGLPGEYWLGNDKISQLTRMGPTELLIEMEDWKGDKVKAHYGGFTVQNEANKYQISVNKYRGTAGNALMDGASQLMGENRTMTIHNGMFFSTYDRDNDGWLTSDPRKQCSKEDGGGWWYNRCHAANPNGRYYWGGQYTWDMAKHGTDDGVVWMNWKGSWYSMRKMSMKIRPFFPQQ
chain 3: YVATRDNCCILDERFGSYCPTTCGIADFLSTYQTKVDKDLQSLEDILHQVENKTSEVKQLIKAIQLTYNPDESSKPNMIDAATLKSRKMLEEIMKYEASILTHDSSIRYLQEIYNSNNQKIVNLKEKVAQLEAQCQEPCKDTVQIHDITGKDCQDIANKGAKQSGLYFIKPLKANQQFLVYCEIDGSGNGWTVFQKRLDGSVDFKKNWIQYKEGFGHLSPTGTTEFWLGNEKIHLISTQSAIPYALRVELEDWNGRTSTADYAMFKVGPEADKYRLTYAYFAGGDAGDAFDGFDFGDDPSDKFFTSHNGMQFSTWDNDNDKFEGNCAEQDGSGWWMNKCHAGHLNGVYYQGGTYSKASTPNGYDNGIIWATWKTRWYSMKKTTMKIIPFNRLTIGEGQQHHLGGAKQVRPEHPAETEYDSLYPEDDL

Biological target: purified human platelet αIIbβ3 integrin (human, UniProt P05106 27-788)
Assay: 2D off-rate, biomembrane force probe adhesion frequency

Binder | koff
B1 | 7.85 s⁻¹
B2 | 8.41 s⁻¹
